Results taken from publication PMC9017247.

Molecular target: SARS-CoV-2 viral particles (spike protein as shown on the whole virus) (SARS-CoV-2)

## recombinant griffithsin lectin protein (rGRFT) (from UniProt P84801 1-121) (natural protein)
  IC50 of rGRFT on SARS-CoV-2 (Ank2, Wuhan like) infection of Vero E6 cells, cytopathic effect reading; rGRFT from 6 uM to 15.4 pM mixed with infectious particles: 33.2 nM
